Experimental data reported in patent publication US12390491B2, “Compositions and methods for providing chemoprotective effects” (GTECH BIO LLC, priority 2020, dated 2025).

B1: GCLM: Heterologous human glutamate-cysteine ligase modifier subunit (SEQ ID NO: 1) overexpressed in cells via lentiviral vector co-expressing GFP (protein)
chain: MGTDSRAAKALLARARTLHLQTGNLLNWGRLRKKCPSTHSEELHDCIQKTLNEWSSQINPDLVREFPDVLECTVSHAVEKINPDEREEMKVSAKLFIVESNSSSSTRSAVDMACSVLGVAQLDSVIIASPPIEDGVNLSLEHLQPYWEELENLVQSKKIVAIGTSDLDKTQLEQLYQWAQVKPNSNQVNLASCCVMPPDLTAFAKQFDIQLLTHNDPKELLSEASFQEALQESIPDIQAHEWVPLWLLRYSVIVKSRGIIKSKGYILQAKRRGS

Key:
Type in all cases: cell-based
[1] = tested on: CEM cells; experiment: GSH level by fluorometric assay, untransduced vs GCLM-transduced cells, pre- and post-busulfan exposure
Description: (§1) Jurkat, CEM, and Tf-1a cell lines were transduced with a lentiviral vector that expresses GCLM and green fluorescent protein (GFP) genes. Chemoprotection experiments were performed by incubating untransduced or mixed populations of (20% transduced, 80% untransduced) cells with busulfan in concentrations ranging from 0 to 200 μg/ml for 1, 2 or 4 hours. Cells were then incubated in busulfan-free culture for 24, 48, 72 and 96 h. Area under the concentration-time curve (AUC) was estimated by using trapezoidal rule from different times and concentrations of incubation. Pre- and post-exposure GSH levels were measured with fluorometric assays. Cell survival and proliferation at different time-points were measured by Nucleocounter NC-200 and flow cytometry using PI and 7-AAD staining protocols. The chemoselection of protected GFP+ cells were evaluated by flow cytometry. Baseline GSH levels and GCLM expression were also measured in primary human HSPCs harvested from 3 different donors with fluorometric and RT-PCR assays.
(§2) The Cells are incubated with busulfan (0, 1, 2, 4, 6, 8, 10, 20, 40, 60, 80, 100 and 200 μg/ml) in serum-free media (RPMI) for 1, 2 and 4 hours. The cells were then washed with ice-cold buffer (PBS+0.5% HSA+0.1% glucose). The washed cells were cultured in RPMI+20% FBS. 24, 48, 72, and 96 h time-point measurements were done.
(§3) Jurkat, CEM, and TF-1a cell lines were transduced with a lentiviral vector that expresses GCLM and green fluorescent protein (GFP) genes (FIG. 2A). Chemoprotection experiments were performed by incubating untransduced or mixed populations of (20% transduced, 80% untransduced) cells with busulfan in concentrations ranging from low (2 to 10 ug/ml) to moderate and high (10 to 200 ug/ml) for 1 or 2 hours. Cells were then incubated and viable cell counts were documented in busulfan-free culture for the 24, 48, 72 and 96-hr timepoints (FIG. 2B). Pre- and post-transduction, and post-exposure GSH levels were measured with fluorometric assays by FACS analysis. Cell survival and proliferation were measured daily by Nucleocounter NC-200 and flow cytometry using PI and 7-AAD staining protocols. The chemo selection of protected GFP-positive cells were evaluated by flow cytometry.

[2] = tested on: CEM cells; experiment: Chemoprotection experiment: busulfan exposure, then viable cell count and proliferation in busulfan-free culture; details: for expansion of viable transduced cells: CEM cells; for fold expansion in viable transduced cells: at 72 h
Description: as §1, §2, §3

[3] = tested on: Jurkat, CEM and TF-1a cells; experiment: Cell survival and proliferation (Nucleocounter NC-200, flow cytometry with PI and 7-AAD)
Description: as §1, with “RT-PCR assays. […]” for “RT-PCR assays.”
(§4) Jurkat, CEM, and TF-1a cell lines were transduced with a lentiviral vector that expresses GCLM and green fluorescent protein (GFP) genes (FIG. 2A). […] Pre- and post-transduction, and post-exposure GSH levels were measured with fluorometric assays by FACS analysis. […] The chemo selection of protected GFP-positive cells were evaluated by flow cytometry.

[4] = tested on: Jurkat cells; experiment: GSH level by fluorometric assay, untransduced vs GCLM-transduced cells; details: lentiviral GCLM/GFP transduction
Description: as §1, §4

[5] = tested on: TF-1a cells; experiment: as above; details: lentiviral GCLM/GFP transduction
Description: as §1, §4

[6] = tested on: CEM cells; experiment: Chemoselection of protected GFP+ cells by flow cytometry in mixed populations (20% transduced, 80% untransduced)
Description: as §1, §2, §3

| Molecule | GSH in untransduced cells after busulfan exposure ([1]; untransduced cells) | sensitivity of untransduced cells to busulfan exposure ([2]; untransduced CEM cells compared with Jurkat and TF-1a) | survival of untransduced cells after busulfan ([2]; untransduced CEM cells, higher doses (10 and 20 μg/ml), by 96 hours) | dependence of cell death and proliferation on busulfan exposure ([3]; all cell cultures, AUC estimated by trapezoidal rule) | GSH level change between untransduced and transduced cells [4] [fold] | GSH level change between untransduced and transduced cells [5] [fold] | GSH level in transduced cells relative to untransduced cells after busulfan ([1]; CEM cells, different dose and time, 24-hr post busulfan exposure) | GSH level change between untransduced and transduced cells ([1]; CEM cells, lentiviral GCLM/GFP transduction) [fold] | GSH levels in transduced cells throughout the experiment ([1]; transduced cells, after busulfan exposure) | expansion of viable transduced cells ([2]; 10 μg/ml busulfan, by 96 hours) [fold] | expansion of viable transduced cells ([2]; 20 μg/ml busulfan, by 96 hours) [fold] | protection (proliferation rate) against busulfan ([2]; GCLM-transduced CEM cells, lower doses of busulfan) | fold expansion in viable transduced cells ([2]; busulfan-exposed transduced cells) [fold] | fold expansion in viable transduced cells ([2]; untreated (no busulfan) transduced control) [fold] | purity of transduced CEM cells ([6]; 72 h of culture after 10 ug/ml busulfan for 1 h, starting from 20%) [%] | transduced cell population ([6]; CEM cells, 10 or 20 μg/ml busulfan, 1-hr or 2-hr exposure, by 96 hours, from 20% initial) [%] | viable transduced cell count ([6]; CEM cells, 72 h of culture after 10 ug/ml busulfan for 1 h, starting from 30×10^3/ml) [mL⁻¹] | transduced cells as share of the cultures ([6]; busulfan doses higher than 10 ug/ml or exposure longer than 1 h, after 72 h) [%] | transduced cell population ([6]; moderate levels of busulfan exposure, in 72-96 h) [%] | effect of GCLM overexpression on cell viability and proliferation ([3]; Jurkat, CEM and TF-1a cells, no busulfan) |
| --- | --- | --- | --- | --- | --- | --- | --- | --- | --- | --- | --- | --- | --- | --- | --- | --- | --- | --- | --- | --- |
| CS(=O)(=O)OCCCCOS(C)(=O)=O [busulfan, reference compound] | depleted | most sensitive | all dead | AUC-dependent |  |  |  |  |  |  |  |  |  |  |  |  |  |  |  |  |
| B1 |  |  |  |  | 2.1 | 1.9 | at least 3.5 fold | 1.7 | remained stable | 5 | 3 | at least 3.5 fold | 2.8 | 3.2 | 88 | 100 | 84000 | 100 | 100 | no effect |
